B1: mAb 26434 (antibody, V domains shown)
VH: QVQLQQSGAEVKKPGASVKVSCKASGYTFSRYGISWVRQAPGQGLEWMGWISAYKGNTNYAQKFQGRVTMTTDTSTSTAYMELRSLRSDDTAVYYCARSPPDFLGWFDPWGQGTLVTVSS
VL: LPVLTQPPSVSVSPGQTASITCSGDKLGDKFTCWYQQKPGQSPVQVIYQDTHRPSGIPERFSGSNSGNTATLTISGTQAVDEADYYCQAWDSSTVIFGGGTKLTVL
B2: mAb 3711 (antibody, V domains shown)
VH: EVQLVESGGGLVKPGRSLRLSCAASGFTFSDYYMSWIRQAPGKGLEWVSYISSSGSTIYYADSVRGRFTISRDNAKNSLYLQMNTLRAEDTAVYYCARGGWELRSLAGGYYGMDVWGQGTTVTVSS
VL: DIVMTQTPFTLSASVGDRVTITCRASQGIRNDLGWYQQKPGKAPKCLIYAASSLLSGVPSRFSGSGSGTEFTLTISSLQPEDFATYYCLQHNSYPWTFGQGTKLEIK

Columns and labels:
[1] = target: SARS‐CoV‐2 WT spike trimer protein (SARS-CoV-2, UniProt P0DTC2); assay: BLI; settings: both partners purified
[2] = target: extracellular domain of SARS‐CoV‐2 (WT) spike (S‐ECD) for cryo-EM (SARS-CoV-2 WT, proline mutation at residue 986 | proline mutation at residue 987, N-linked glycans (Asn17, Asn122, Asn165 and others)); assay: cryo-EM structure; settings: both partners purified

Row | Binder | Kd [1] | stoichiometry N [2]
1 | B1 | 670 nM | –
2 | B2 | – | 3 Fabs per spike trimer
